Measured values published in patent US20250270296A1 (ACADEMIA SINICA, published 2025).

Columns and labels:
[1] = target: SARS-CoV-2 S protein, full length, wild type (on pseudovirus, authentic virus hCoV-19/Taiwan/4/2020 (SARS-CoV-2, UniProt P0DTC2 14-1273)); test: cell-based or functional assay
[2] = target: SARS-COV-2 RBD-His protein (SARS-CoV-2, UniProt P0DTC2 319-541)

Row | Binder | PRNT50 [1] | pseudovirus neutralization assay IC50 [1] | further results
1 | RBD-chAb-15 (antibody, V domains shown) VH: EVQLEESGPGLVQPSQSLSITCTVSDFSLTTYGVHWVRQSPGKGLEWLGVIWSGGSTDYNAAFISRLSISKDNSKSQVFFKMNSLQTNDTAIYYCARMGDGYYVGAMDYWGQGTSVTVSS VL: DIQLTQSPAILSVSPGERVSFSCRASQSIGTSIHWYQQRTNGSPRHLIKYASESISGIPSRFSGSGSGTDFTLTINGVESEDIADYYCQQGHNWPLTFGAGTKLDIK | < 36 ng/mL |  | 
2 | RBD-chAb-28 (antibody, V domains shown) VH: QVQLQQPGTELVMPGASVKMSCKASGYTFTDYYLHWMKQRPGQGLEWIGAIDSSDSYTDYNQNFKGKATLTVDESSSTAYMHLSSLTSEDSAVYYCARGKDAYDRRPWFAYWGQGTLVTVSA VL: DIQMTQTTSSLSASLGDRVTISCSASQGIRYYLNWYQQKPDGTVKLLIYYTSNLHSGVPSRFSGSGSGTDYSLTISNLEPEDIATYYCQQYNKLPYTFGGGTKLDIK |  | 8.75 ng/mL | 
3 | RBD-chAb-1 (antibody, V domains shown) VH: EVQLQQSGPQLVRPGASMKISCKASGYSFTTYWMHWVKQRPGQGLQWIGMIDPSDSETRLNQKFKDKATLTVDKSSSTAYMQLSSPTSEDSAVYYCARDFDYDRTMDYWGQGTSVTVSS VL: DIVMSQSPSSLAVSVGEKVTMSCKSSQSLLFSSSQKNYLAWYQQKAGQSPKLLIFWASTRESGVPDRFTGSGSGTDFTLTISSVKAEDLAIYYCKQYYKYPLTFGAGTKLDIK | < 36 ng/mL |  | 
4 | RBD-chAb-45 (antibody, V domains shown) VH: EVQLQQSGPELVKPGASVKISCKTSGYTFTEYTIYWVKQSLGKSLEWIGGNNPNNDDTTYKQFFKGKATLTVDKSSSTAYMELRSLTSEDSAVYYCARDGYPYYYALDFWGQGTSVTVSS VL: DILMTQSQKFMSTSVGDRVSVTCKSSQNVGTNVAWYQQKPGQSPKALIYSASYRYSGVPDHFTGSGSGTDFTLTISNVQSADLAEYFCQQYNNYPWTFGGGTKLDIK |  | 2.3 ng/mL | Kd [2]: 282 pM; koff [2]: 0.000282 s⁻¹; kon [2]: 997000 M⁻¹ s⁻¹
5 | RBD-chAb-51 (antibody, V domains shown) VH: EVQLQQSGPELVKPGASAKISCKTSGYTFTEYTMYWVKQSHGKSLEWIGGINPNNGDTTYNQTFKGKATLTVDKSSSTAYMELRSLTSEDSAVYYCARDGYPFYYALDYWGQGISVTVSS VL: DIVMTQSQKFMSTSVGDRVSVTCKARQIVGTNVAWYQQKPGQSPKALIYSASYRYSGVPDRFTGSGSGTDFTLTITNVHSEDLAEFFCHQYNSYPWTFGGGTKLDIK |  | 0.98 ng/mL | 
